In US20080027145A1, “Therapeutic Molecules and Methods for Generating and/or Selecting Same” (priority 2004, published 2008):

B1: Bad: full-length mouse BH3-only protein Bad expressed in cells, recombinant in GST pull-down (protein, UniProt Q61337 1-204, looked up)
chain: MGTPKQPSLAPAHALGLRKSDPGIRSLGSDAGGRRWRPAAQSMFQIPEFEPSEQEDASATDRGLGPSLTEDQPGPYLAPGLLGSNIHQQGRAATNSHHGGAGAMETRSRHSSYPAGTEEDEGMEEELSPFRGRSRSAPPNLWAAQRYGRELRRMSDEFEGSFKGLPRPKSAGTATQMRQSAGWTRIIQSWWDRNLGKGGSTPSQ
modifications: full-length
notes: full-length mouse BH3-only protein Bad expressed in cells, recombinant in GST pull-down
B2: Bmf: BH3-only protein Bmf, expressed from retrovirus in MEFs, recombinant in GST pull-down (protein, UniProt Q91ZE9 1-185, looked up)
Bcl-2-modifying factor: MEPPQCVEELEDDVFQSEDGEPGTQPGGLLSADLFAQSQLDCPLSRLQLFPLTHCCGPGLRPISQEDKATQTLSPASPSQGVMLPCGVTEEPQRLFYGNAGYRLPLPASFPAGSPLGEQPPEGQFLQHRAEVQIARKLQCIADQFHRLHTQQHQQNRDRAWWQVFLFLQNLALNRQENREGVGPW
B3: Bik: full-length human BH3-only protein Bik expressed in cells (protein, UniProt Q13323 1-160, looked up)
chain: MSEVRPLSRDILMETLLYEQLLEPPTMEVLGMTDSEEDLDPMEDFDSLECMEGSDALALRLACIGDEMDVSLRAPRLAQLSEVAMHSLGLAFIYDQTEDIRDVLRSFMDGFTTLKENIMRFWRSPNPGSWVSCEQVLLALLLLLALLLPLLSGGLHLLLK
modifications: full-length
B4: Noxa: full-length BH3-only protein Noxa expressed in cells (mouse Noxa bearing two BH3s in co-immunoprecipitation) (protein, UniProt Q9JM54 1-103, looked up)
chain: MPGRKARRNAPVNPTRAELPPEFAAQLRKIGDKVYCTWSAPDITVVLAQMPGKSQKSRMRSPSPTRVPADLKDECAQLRRIGDKVNLRQKLLNLISKLFNLVT
modifications: full-length

Tests used:
[1] = target: GST Mcl-1 (Mus musculus, UniProt P97287); assay: GST pull-down with recombinant BH3-only proteins; format: binding
[2] = target: T1, Bcl-w ΔC29 (Homo sapiens, UniProt Q92843, A128E/C29S); assay: Bcl-w ΔC29
T1 construct: human Bcl-w (Acc. no. NP_004041; residues 1-164; C29S A128E); made in house
Method: (§1) Table printed on a drawing sheet, FIGURE 2A
(§2) The patent's description of the figure: FIG. 2 is a graphical representation showing pro-apoptotic BH3-only and pro-survival Bcl-2-like proteins have distinctive interactions. (A) Using competitive binding assays, the IC50 (nM) for the indicated interactions were determined. The results shown are from representative experiments; the variation observed in multiple experiments was less than two-fold (using different chips or protein batches). (B) Relative binding affinities of interactions (tabulated in A) were inversely plotted. The BH3 binding profiles of pro-survival proteins are shown. In (C), the sequences of human Bcl-2 (residues 93-202), human Bcl-xL (86-195), human Bcl-w (42-151), mouse Mcl-1 (190-300) and mouse A1 (33-148) that form their BH3 binding grooves (α-helices 2 to 8; Hinds et al., EMBO J 22:1497-1507, 2003) were compared and presented as a phylogenetic tree. Color reproductions are available from the patentees on request.
(§3) First copying reader's note: The table itself prints no unit; IC50 (nM) is printed only on the axis of panel B of the same figure, which plots the same values.

[3] = target: T2, FLAG-tagged Bcl-xL (Homo sapiens, UniProt Q07817); assay: Co-immunoprecipitation in transfected 293T cells; format: binding; settings: tagged full-length proteins
T2 construct: expressed in transfected cells; host or cells: HEK293T
Source text: (§4) Equivalent ^35S-labeled lysates harvested from 293T cells were immunoprecipitated with antibodies to the HA, FLAG (FL) or control (C) tags.
(§5) The maintenance, transfection and metabolic labeling of the human embryonic kidney (HEK) 293T cells with ^35S-methionine/cysteine (NEN) as well as co-immunoprecipitation have been described (Huang et al., Supra; Moriishi et al., Proc Natl Acad Sci USA 96:9683-9688, 1999; O'Conner et al., Supra). Briefly, equivalent TCA-precipitable lysates were immunoprecipiated using the mouse monoclonal antibodies to HA (HA.11; CRP), FLAG (M2; Sigma) and control Glu-Glu (CRP) tags. The proteins were resolved by SDS:PAGE, transferred onto nitrocellulose membranes and detected by fluorography (Amplify; Amersham Biosciences).
(§6) To verify the in vitro findings, interactions of selected pairs of the full-length N-terminally tagged proteins were investigated in mammalian cells by co-immunoprecipitation. […] The cells were metabolically labeled with ^35S-methionine/cysteine to permit semi-quantitative assessment of any interaction between co-associating radiolabeled proteins.
(§7) To verify the in vitro findings, selected pairs of the full-length N-terminally tagged proteins associated in mammalian cells were investigated by co-immunoprecipitation. […] The cells were metabolically labeled with ^35S-methionine/cysteine to permit semi-quantitative assessment of any interaction between the labeled proteins or interaction was gauged by the more sensitive western blotting.

[4] = target: T3, FLAG-tagged Bcl-2 (Homo sapiens, UniProt P10415); assay: Co-immunoprecipitation in transfected 293T cells; format: binding; settings: tagged full-length proteins
T3 construct: expressed in transfected cells; host or cells: HEK293T
Source text: as §4, §5, §6, §7

[5] = target: T4, FLAG-tagged Mcl-1 (Mus musculus, UniProt P97287); assay: Co-immunoprecipitation in transfected 293T cells; format: binding; settings: tagged full-length proteins
T4 construct: expressed in transfected cells; host or cells: HEK293T
Source text: as §4, §5, §6, §7

[6] = target: T5, A1 ΔC20 (Mus musculus, UniProt Q07440); assay: A1 ΔC20
T5 construct: mouse A1 (Acc. no. NP_033872; residues 1-152); GST (N, cleaved yes); made in house
Method: as §1
Head of the field: A1 ΔC20
as §2, §3
Where the first naming reader finds the target: head: A1 ΔC20

[7] = target: T6, Bcl-xL ΔC24 (Homo sapiens, UniProt Q07817); assay: Bcl-xL ΔC24
T6 construct: Human Bcl-xL (Acc. no. NP_612815; residues 1-209); GST (N, cleaved yes); made in house
Method: as §1
Head of the field: Bcl-xL ΔC24
as §2, §3
Where the first naming reader finds the target: head: Bcl-xL ΔC24

[8] = tested on: mouse embryonic fibroblasts (MEFs); assay: Killing of MEFs after retroviral expression, viability 24 hours after infection; format: cell-based; settings: for killing of MEFs: retroviral expression, 24 hours after infection; for killing of MEFs on co-expression with the NoxaBH3: co-expressed with GFP-Bims NoxaBH3, 24 hours
Method: FIG. 7 is a graphical representation showing that BH3-only proteins that bind selective targets have weak killing activity. (A) The affinities of BH3-only peptides for pro-survival proteins (tabulated in FIG. 3A) were inversely plotted to facilitate comparison of the patterns of BH3 binding. […] Immortalized 3T9 MEFs were infected with retroviruses expressing only GFP (control), or one of the BH3-only proteins and GFP. The viability of the infected (GFP^+ve) cells was determined by PI exclusion 24 hours after infection. The histograms represent means±1SD of at least 3 experiments. […] The filter was probed with a rat monoclonal anti-FLAG antibody. *Degradation product of Mcl-1. […] Viability of MEFs infected with retroviruses encoding the indicated proteins (GFP^+ve) was analyzed 24 hours after infection. The histograms represent means±1SD of at least 3 experiments. (E) Long-term survival of MEFs infected with BH3 expressing retroviruses. One hundred retrovirally-infected cells were plated and the absolute number of GFP^+ve colonies formed after 6 days scored. […] The data represent the average number of GFP^+ve colonies formed±1SD from at least 3 experiments. To assess the biological relevance of the selective binding, retroviral delivery was used to compare the ability of different BH3-only proteins to kill wild-type mouse embryonic fibroblasts (MEFs). To monitor expression of the introduced gene, a vector (pMIG) in which its expression is coupled via an internal ribosomal entry site (IRES) to that of green fluorescent protein (GFP) was used (Van Parijs et al., Immunity 11:281-288, 1999). The cells were efficiently infected (>90%) and the introduced BH3-only proteins were comparably expressed. Viability of the infected (GFP^+ve) cells was scored 24 hours after infection (FIGS. 7A, 7B) and in long-term colony assays (FIG. 7E). […] Thus, the neutralization of Mcl-1 by Noxa should be complemented by co-expression of a BadBH3 to neutralize Bcl-2 and Bcl-xL in MEFs (FIG. 8A).

[9] = target: T7, Bcl-2 ΔC22 (Homo sapiens, UniProt P10415); assay: Bcl-2 ΔC22
T7 construct: Human Bcl-2 (Acc. no. NP_000624; residues 1-217); made in house
Method: as §1
Head of the field: Bcl-2 ΔC22
as §2, with “In (C), the sequences of human Bcl-2 (residues 93-202), human Bcl-xL (86-195), human Bcl-w (42-151), mouse Mcl-1 (190-300) and mouse A1 (33-148) that form their BH3 binding grooves (α-helices 2 to 8; Hinds et al., EMBO J 22:1497-1507, 2003) were compared and presented as a phylogenetic tree.” left out
as §3
Where the first naming reader finds the target: head: Bcl-2 ΔC22

[10] = target: T8, Mcl-1 ΔN151 ΔC23 (Mus musculus, UniProt P97287); assay: Mcl-1 ΔN151 ΔC23
T8 construct: mouse Mcl-1 (Acc. no. NP_031588; residues 152-308); GST (N, cleaved yes); made in house
Method: as §1
Head of the field: Mcl-1 ΔN151 ΔC23
as §2, §3
Where the first naming reader finds the target: head: Mcl-1 ΔN151 ΔC23

[11] = tested on: mouse embryonic fibroblasts (MEFs); assay: Long-term colony assay of retrovirally infected MEFs; format: cell-based; settings: colonies after 6 days
Method: FIG. 7 is a graphical representation showing that BH3-only proteins that bind selective targets have weak killing activity. (A) The affinities of BH3-only peptides for pro-survival proteins (tabulated in FIG. 3A) were inversely plotted to facilitate comparison of the patterns of BH3 binding. […] Immortalized 3T9 MEFs were infected with retroviruses expressing only GFP (control), or one of the BH3-only proteins and GFP. The viability of the infected (GFP^+ve) cells was determined by PI exclusion 24 hours after infection. The histograms represent means±1SD of at least 3 experiments. […] The filter was probed with a rat monoclonal anti-FLAG antibody. *Degradation product of Mcl-1. […] Viability of MEFs infected with retroviruses encoding the indicated proteins (GFP^+ve) was analyzed 24 hours after infection. The histograms represent means±1SD of at least 3 experiments. (E) Long-term survival of MEFs infected with BH3 expressing retroviruses. One hundred retrovirally-infected cells were plated and the absolute number of GFP^+ve colonies formed after 6 days scored. […] The data represent the average number of GFP^+ve colonies formed±1SD from at least 3 experiments. […] Viability of the infected (GFP^+ve) cells was scored 24 hours after infection (FIGS. 7A, 7B) and in long-term colony assays (FIG. 7E).

T5 sequence (Q07440 1-152, stated change not applied): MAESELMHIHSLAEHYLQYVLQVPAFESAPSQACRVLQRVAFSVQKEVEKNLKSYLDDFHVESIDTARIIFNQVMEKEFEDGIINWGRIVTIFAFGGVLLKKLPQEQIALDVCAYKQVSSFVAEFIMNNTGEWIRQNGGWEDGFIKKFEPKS
T2 sequence (Q07817 whole entry): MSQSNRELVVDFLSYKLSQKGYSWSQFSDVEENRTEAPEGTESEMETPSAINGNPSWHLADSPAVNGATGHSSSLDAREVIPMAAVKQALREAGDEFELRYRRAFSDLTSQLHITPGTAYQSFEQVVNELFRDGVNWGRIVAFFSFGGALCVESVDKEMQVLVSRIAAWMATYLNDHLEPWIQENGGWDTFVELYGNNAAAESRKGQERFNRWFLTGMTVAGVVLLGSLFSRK
GST Mcl-1, sequence (P97287 whole entry): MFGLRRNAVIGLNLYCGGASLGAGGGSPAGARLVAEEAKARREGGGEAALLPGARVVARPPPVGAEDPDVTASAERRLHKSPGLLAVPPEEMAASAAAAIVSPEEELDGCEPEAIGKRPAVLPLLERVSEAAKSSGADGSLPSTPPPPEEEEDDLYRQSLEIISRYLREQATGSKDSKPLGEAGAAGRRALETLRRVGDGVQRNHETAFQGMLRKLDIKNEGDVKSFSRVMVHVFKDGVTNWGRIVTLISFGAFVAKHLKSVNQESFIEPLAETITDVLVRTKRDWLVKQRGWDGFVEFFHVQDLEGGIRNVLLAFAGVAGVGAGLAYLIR
T4 sequence (P97287 whole entry): as above
T7 sequence (P10415 1-217, stated change not applied): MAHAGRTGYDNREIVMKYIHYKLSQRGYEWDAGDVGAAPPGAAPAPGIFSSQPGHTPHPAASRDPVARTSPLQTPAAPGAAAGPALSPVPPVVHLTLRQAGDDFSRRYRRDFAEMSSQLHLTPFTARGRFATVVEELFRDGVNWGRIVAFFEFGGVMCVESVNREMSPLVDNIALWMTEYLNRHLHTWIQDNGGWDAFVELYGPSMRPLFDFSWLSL
T1 sequence (Q92843 1-164 C29S/A128E): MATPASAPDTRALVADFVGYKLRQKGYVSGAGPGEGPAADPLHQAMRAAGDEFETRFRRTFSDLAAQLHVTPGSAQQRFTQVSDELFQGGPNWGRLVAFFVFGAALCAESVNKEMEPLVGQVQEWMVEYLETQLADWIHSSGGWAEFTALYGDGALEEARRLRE
T8 sequence (P97287 152-308, stated change not applied): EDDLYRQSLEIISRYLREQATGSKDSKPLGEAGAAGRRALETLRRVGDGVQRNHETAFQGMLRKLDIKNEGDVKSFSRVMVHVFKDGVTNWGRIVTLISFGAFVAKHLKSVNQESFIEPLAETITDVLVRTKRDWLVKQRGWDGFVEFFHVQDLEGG
T6 sequence (Q07817 1-209, stated change not applied): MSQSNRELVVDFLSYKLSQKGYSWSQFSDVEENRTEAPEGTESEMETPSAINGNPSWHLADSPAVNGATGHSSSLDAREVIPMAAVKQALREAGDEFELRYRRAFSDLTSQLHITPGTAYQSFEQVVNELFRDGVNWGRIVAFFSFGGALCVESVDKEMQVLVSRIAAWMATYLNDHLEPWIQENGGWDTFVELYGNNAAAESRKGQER
T3 sequence (P10415 whole entry): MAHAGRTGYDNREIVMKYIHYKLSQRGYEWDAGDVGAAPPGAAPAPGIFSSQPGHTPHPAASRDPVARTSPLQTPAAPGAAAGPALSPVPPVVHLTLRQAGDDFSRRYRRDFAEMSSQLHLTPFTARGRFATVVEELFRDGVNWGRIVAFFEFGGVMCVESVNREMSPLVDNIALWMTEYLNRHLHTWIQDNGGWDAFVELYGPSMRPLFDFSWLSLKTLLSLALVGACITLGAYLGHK

| Molecule | binding of GST Mcl-1 [1] | IC50 [2] [nM] | interaction with Bcl-xL by co-immunoprecipitation [3] | interaction with Bcl-2 by co-immunoprecipitation [4] | interaction with Mcl-1 by co-immunoprecipitation [5] | IC50 [6] [nM] | IC50 [7] [nM] | killing of MEFs [8] | IC50 [9] [nM] | IC50 [10] [nM] | long-term survival, GFP+ve colonies [11] | killing of MEFs on co-expression with the NoxaBH3 [8] | killing of MEFs on co-expression with the BadBH3 ([8]; co-expressed with GFP-Bims BadBH3, 24 hours) |
| --- | --- | --- | --- | --- | --- | --- | --- | --- | --- | --- | --- | --- | --- |
| B1 | not | 30 | bound well | bound well | not appreciably | 15000 | 5.3 | much less potent killers | 16 | > 100000 | – | – | – |
| B2 | weakly | – | – | – | – | 1800 | – | much less potent killers | – | 1100 | – | – | – |
| B3 | – | – | to a greater extent than Bcl-2 or Mcl-1 | – | – | 58 | – | much less potent killers | – | – | modest effects | potently enhanced | – |
| B4 | – | > 100000 | did not | – | interacted only with Mcl-1 | 180 | > 100000 | much less potent killers | > 100000 | – | modest effects | did not augment | as much cell death as expression of Bims alone |
